Article PMC2817712

Target: CheY6 (wild type) with an engineered C-terminal biotinylation tag, for SPR surfaces (R. sphaeroides)
Assay: SPR; Biacore T100, 25°C; response regulator biotinylated in a C-terminal tag and held on streptavidin (200-1,500 RU); CheA3P1 injected at 120 nM to 2 mM; standard buffer (30 mM Hepes pH 7.5, 150 mM NaCl, 5 mM sodium acetate, 2 mM manganese chloride, 2 mM TCEP) with 0.05% Tween 20; equilibrium binding, 1:1 Langmuir model

CheY6 (wild type) with an engineered C-terminal biotinylation tag, for SPR surfaces (R. sphaeroides), sequence (Q8KLS1 entry or part of it, stated change not applied): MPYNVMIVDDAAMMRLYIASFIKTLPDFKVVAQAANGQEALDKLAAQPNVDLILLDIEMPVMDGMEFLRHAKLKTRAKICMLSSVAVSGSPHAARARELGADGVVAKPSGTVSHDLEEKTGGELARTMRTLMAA

“CheA3P1, the isolated P1 (Hpt, histidine-containing phosphotransfer) domain of CheA3 (residues 1-135), unphosphorylated (domain or fragment)” gave a Kd of 218 µM.
